Tested on: peptide library, one residue held at a place counted from the Y acceptor
Test: relative phosphorylation of the sub-library (ratio to the mean residue at this position); higher = residue favoured
How it was run: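 Peptide library mixtures, biotinylated and centred on Tyr, each fixed one residue at one position from −5 to +5. Purified recombinant kinases were incubated with them for 90 min in 384-well plates alongside 50 μM ATP and γ-32P-ATP, and the captured, rinsed peptides on streptavidin membranes were measured by phosphorimaging and ImageQuant. Normalization divided each position's intensities by the sum of its 18 randomized residues (16 for the Ser/Thr-free library) and multiplied by that number, so that values give phosphorylation relative to the mean randomized residue.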

NTRK3, construct: aa510-end, human, sequence (Q16288 510-839, looked up): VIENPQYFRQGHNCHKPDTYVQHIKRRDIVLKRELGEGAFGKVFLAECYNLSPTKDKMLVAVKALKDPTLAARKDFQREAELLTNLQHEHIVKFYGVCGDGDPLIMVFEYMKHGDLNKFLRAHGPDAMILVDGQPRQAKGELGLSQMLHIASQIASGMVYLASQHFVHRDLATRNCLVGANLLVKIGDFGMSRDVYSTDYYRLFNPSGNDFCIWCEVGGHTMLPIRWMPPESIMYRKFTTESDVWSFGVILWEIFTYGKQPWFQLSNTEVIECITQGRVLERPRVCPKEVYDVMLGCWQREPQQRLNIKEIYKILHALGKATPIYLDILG
PDGFRA, construct: aa550-end, human, sequence (P16234 550-1089, looked up): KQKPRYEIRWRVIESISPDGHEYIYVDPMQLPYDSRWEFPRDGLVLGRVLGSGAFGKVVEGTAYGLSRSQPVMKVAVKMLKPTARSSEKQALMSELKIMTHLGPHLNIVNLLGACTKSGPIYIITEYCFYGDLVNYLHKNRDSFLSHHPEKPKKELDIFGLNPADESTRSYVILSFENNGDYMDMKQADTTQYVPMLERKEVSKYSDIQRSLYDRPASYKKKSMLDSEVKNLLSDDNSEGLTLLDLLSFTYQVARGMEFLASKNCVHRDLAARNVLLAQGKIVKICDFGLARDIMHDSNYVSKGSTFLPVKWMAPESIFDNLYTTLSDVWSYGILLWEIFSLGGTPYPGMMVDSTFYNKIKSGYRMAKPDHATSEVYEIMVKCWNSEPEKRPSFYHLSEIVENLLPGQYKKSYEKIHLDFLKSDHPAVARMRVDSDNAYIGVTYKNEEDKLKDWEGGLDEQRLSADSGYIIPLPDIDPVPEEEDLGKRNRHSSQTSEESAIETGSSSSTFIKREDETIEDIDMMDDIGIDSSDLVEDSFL

NTRK3, construct: aa510-end, human (from UniProt Q16288)
relative phosphorylation
Conditions | at +1 | at +2 | at +3 | at +4 | at +5 | at -1 | at -2 | at -3 | at -4 | at -5
A fixed | 1.69 | 0.892 | 0.734 | 0.952 | 1.02 | 0.783 | 1.09 | 0.974 | 1.11 | 1.07
D fixed | 0.49 | 0.785 | 0.467 | 0.945 | 0.698 | 2.14 | 1.23 | 1.2 | 1.15 | 1.18
E fixed | 0.8 | 1.08 | 0.378 | 1.29 | 0.752 | 1.3 | 1.51 | 1.47 | 1.61 | 1.17
F fixed | 1.63 | 1.19 | 1.77 | 1.06 | 1.2 | 0.893 | 0.809 | 1.08 | 1.33 | 0.973
G fixed | 0.753 | 0.459 | 0.63 | 1.37 | 1.12 | 0.495 | 1.19 | 1.08 | 1.22 | 1.35
H fixed | 1.43 | 0.887 | 0.884 | 1.15 | 1.21 | 1.47 | 1.1 | 1.26 | 0.913 | 0.977
I fixed | 1.77 | 1.04 | 2.41 | 0.792 | 0.939 | 1.38 | 0.831 | 0.755 | 0.902 | 0.965
K fixed | 0.14 | 0.714 | 0.269 | 0.674 | 0.867 | 0.149 | 0.635 | 0.559 | 0.657 | 0.717
L fixed | 0.821 | 1.09 | 2.05 | 0.72 | 1 | 1.24 | 0.776 | 0.724 | 0.961 | 0.986
M fixed | 1.53 | 1.08 | 1.55 | 1.11 | 0.978 | 0.745 | 0.654 | 0.775 | 0.753 | 1.02
N fixed | 0.322 | 1.11 | 0.403 | 0.855 | 0.687 | 2.5 | 1.17 | 1.41 | 0.809 | 1.22
P fixed | 0.269 | 0.874 | 0.906 | 1.63 | 1.6 | 1.11 | 1.12 | 0.994 | 1.14 | 1.18
Q fixed | 0.686 | 1.02 | 0.485 | 0.908 | 0.702 | 0.756 | 1.11 | 0.791 | 1.01 | 0.943
R fixed | 0.173 | 1.05 | 0.375 | 0.821 | 0.975 | 0.196 | 0.731 | 0.682 | 0.641 | 0.87
S fixed | 0.83 | 1.02 | 0.77 | 0.869 | 0.961 | 0.701 | 1.2 | 1.14 | 0.748 | 0.814
T fixed | 0.871 | 0.983 | 0.741 | 0.862 | 0.919 | 0.784 | 1 | 1.04 | 0.684 | 0.88
V fixed | 1.95 | 0.976 | 1.64 | 0.786 | 0.807 | 0.872 | 0.87 | 0.738 | 0.823 | 0.734
W fixed | 1.85 | 1.76 | 1.54 | 1.21 | 1.55 | 0.48 | 0.989 | 1.32 | 1.53 | 0.951
pThr fixed | 1.61 | 0.745 | 0.374 | 0.914 | 0.625 | 0.999 | 1 | 0.982 | 0.995 | 0.973
pTyr fixed | 2.92 | 1.81 | 0.837 | 1.17 | 0.96 | 7.29 | 1.63 | 1.86 | 1.64 | 1.2

PDGFRA, construct: aa550-end, human (from UniProt P16234)
relative phosphorylation
Conditions | at +1 | at +2 | at +3 | at +4 | at +5 | at -1 | at -2 | at -3 | at -4 | at -5
A fixed | 0.719 | 0.633 | 0.549 | 0.784 | 0.982 | 0.729 | 1.02 | 0.85 | 1.04 | 0.882
D fixed | 0.273 | 0.434 | 0.302 | 0.674 | 0.645 | 1.32 | 0.947 | 0.97 | 0.898 | 0.812
E fixed | 0.492 | 0.583 | 0.198 | 0.613 | 0.565 | 0.962 | 0.814 | 1.14 | 0.849 | 0.737
F fixed | 2.05 | 1.59 | 1.61 | 1.05 | 1.35 | 1.37 | 0.853 | 0.954 | 1.21 | 1.11
G fixed | 0.34 | 0.427 | 0.755 | 0.98 | 0.943 | 0.594 | 1.09 | 1.07 | 1.08 | 1.03
H fixed | 1.43 | 1.02 | 0.972 | 1.34 | 1.1 | 1.47 | 1.01 | 1.09 | 0.962 | 1.15
I fixed | 1.66 | 1.03 | 2.09 | 0.922 | 0.999 | 1.36 | 0.94 | 0.823 | 0.916 | 1.1
K fixed | 0.699 | 1.12 | 1.02 | 1.05 | 1.08 | 0.509 | 0.835 | 0.959 | 1.06 | 0.995
L fixed | 1.31 | 1.4 | 1.53 | 0.808 | 1.12 | 1.18 | 1 | 0.905 | 1.06 | 1.11
M fixed | 1.13 | 1.2 | 1.13 | 1.17 | 1.02 | 0.892 | 1 | 0.967 | 0.878 | 1.1
N fixed | 0.671 | 0.856 | 0.748 | 0.987 | 0.967 | 1.49 | 1.06 | 1.13 | 0.832 | 1.07
P fixed | 0.31 | 0.863 | 0.928 | 1.11 | 0.943 | 0.931 | 1.34 | 1.08 | 1.06 | 0.885
Q fixed | 1.25 | 0.928 | 0.632 | 1.01 | 0.92 | 1.07 | 1.13 | 1.11 | 1.07 | 1.04
R fixed | 0.768 | 1.56 | 1.19 | 1.49 | 1.17 | 0.55 | 1.03 | 1.09 | 1.05 | 1.19
S fixed | 0.655 | 0.633 | 0.604 | 0.91 | 0.932 | 0.694 | 1.03 | 1.02 | 0.801 | 0.817
T fixed | 0.848 | 0.606 | 0.793 | 0.97 | 0.888 | 0.945 | 0.917 | 0.977 | 0.745 | 0.856
V fixed | 1.92 | 0.851 | 1.62 | 0.839 | 0.98 | 1.02 | 0.954 | 0.778 | 0.894 | 0.86
W fixed | 1.46 | 2.27 | 1.33 | 1.31 | 1.39 | 0.91 | 1.03 | 1.07 | 1.6 | 1.26
pThr fixed | 0.498 | 0.395 | 0.237 | 0.467 | 0.482 | 0.675 | 0.695 | 0.693 | 0.744 | 0.786
pTyr fixed | 1.75 | 1.49 | 0.414 | 0.788 | 0.626 | 1.09 | 0.876 | 1.12 | 1.16 | 1.02
